Test results taken from publication PMC10871247 (bioRxiv, 2024).

Legend:
native gel or EMSA = biological target: the molecule itself; assay: native gel or EMSA
native MS = biological target: the molecule itself; assay: native MS
SEC = biological target: the molecule itself; assay: SEC

B1: 3×Ala-MxEnc (natural protein, Myxococcus xanthus)
chain: MPDFLGHAENPLREEEWARLNETVIQVARRSLVGRRILDIYGPLGAGVQTVPYDEFQGVSPGAVDIVGEQETAMVFTDARKFKTIPIIYKDFLLHWRDIEAARTHNMPLDVSAAAGAAALCAQQEDELIFYGDARLGYEGLMTANGRLTVPLGDWTSPGGGFQAIVEATRKLNEQGHFGPYAVVLSPRLYSQLHRIYEAAAVLEIETIRQLASDGVYQSNRLRGESGVVVSTGRENMDLAVSMDMVAAYLGASRMNHPFRVLEALLLRIKHPDAICTLEGAGATERR
Q: Does B1 bind (native gel or EMSA)?
A: Result: binds

B2: 3×His-MxEnc (K199H/T200H/G201H triple point mutant of the M. xanthus encapsulin) (natural protein, Myxococcus xanthus)
chain: MPDFLGHAENPLREEEWARLNETVIQVARRSLVGRRILDIYGPLGAGVQTVPYDEFQGVSPGAVDIVGEQETAMVFTDARKFKTIPIIYKDFLLHWRDIEAARTHNMPLDVSAAAGAAALCAQQEDELIFYGDARLGYEGLMTANGRLTVPLGDWTSPGGGFQAIVEATRKLNEQGHFGPYAVVLSPRLYSQLHRIYEHHHVLEIETIRQLASDGVYQSNRLRGESGVVVSTGRENMDLAVSMDMVAAYLGASRMNHPFRVLEALLLRIKHPDAICTLEGAGATERR
Q: How did the “stoichiometry N” value (native MS) turn out when B2 was run?
A: The value was 60.

B3: 3×Asp-MxEnc (natural protein, Myxococcus xanthus)
chain: MPDFLGHAENPLREEEWARLNETVIQVARRSLVGRRILDIYGPLGAGVQTVPYDEFQGVSPGAVDIVGEQETAMVFTDARKFKTIPIIYKDFLLHWRDIEAARTHNMPLDVSAAAGAAALCAQQEDELIFYGDARLGYEGLMTANGRLTVPLGDWTSPGGGFQAIVEATRKLNEQGHFGPYAVVLSPRLYSQLHRIYEDDDVLEIETIRQLASDGVYQSNRLRGESGVVVSTGRENMDLAVSMDMVAAYLGASRMNHPFRVLEALLLRIKHPDAICTLEGAGATERR
Q: Does B3 bind (SEC)?
A: Result: binds
